Values joined by “and” are separate entries in the source; they are usually repeats but may differ in a detail not shown here. Identical values can stand only once.
How the values were obtained:
BXPC3 tumor [1] = assay: Therapeutic effect of doxorubicin-loaded chitosan nanobubbles in BXPC3 mouse model
Procedure: The amount of doxorubicin loaded nanobubbles used for the treatments in each group corresponded to 2 mg/kg per week of doxorubicin for each different treatment modality. Data are represented as mean±SD.
P-value was calculated using the log-rank test. Colored areas correspond to 95% confidence interval.
The survival data from the four treatments were evaluated by Kaplan-Meier curves to compare each treatment with one at time of the others. […] P-value was calculated using the log-rank test. Colored areas correspond to 95% confidence interval.
The study started when the subcutaneous BXPC3-tumor reached a volume of 75 mm^3. The humanitarian endpoints that had caused the euthanasia of mice were: one tumor dimension greater than 12 mm or ulceration of the tumor. Four groups of mice were tested: a first group of animals treated with doxo-CS NBs-C (n=6); a second group of animals treated with doxo-CS NBs (n=6); a third group of control animals treated with doxorubicin (doxo 2 mg/kg) in order to treat mice at the same concentration (2 mg/kg for a week) (n=10); a fourth group of control animals treated with PBS solution (n=8).
Mice survival was evaluated using Kaplan-Meier curves and the p-value was calculate using log rank test.

BXPC3 tumor mass [2] = assay: In vivo and ex vivo biodistribution of Cy5.5-conjugated anti-GPC1 C in BXPC3 xenograft mice; design: species or system athymic nude mice
Procedure: Whole-body scan of a representative mouse in prone and supine position is shown. […] Green circles enclose the tumor mass.
Data are reported as average efficiency mean±SD (n=4). P-value was calculated using the t-test, for the t-test, anti-GPC1 C was used as reference for each time point. ns: ≥0.05; *: 0.05<p≤0.01; **: 0.01<p≤0.001.
Data are reported as mean±SD (n=4). P-value was calculated using the t-test. ns: ≥0.05.
Blue represents nuclei and green represents IgMs. Scale bar corresponds to 25 μm.
Specifically, in vivo time course experiments with signal detection from 0 to 96 hours and signal evaluation every 24 hours were performed to evaluate the ability to target tumor mass and the overall biodistribution of anti-GPC1 C when injected into the mouse tail vein after conjugation with Cy5.5 for detection using the VIVOVISION IVIS®Lumina (Xenogen) in vivo imaging device (FIGS. 5A, B, C, D, E, F, G).

BXPC3 tumor [3] = tested on: BXPC3 tumor
Procedure: Experimental endpoint was set up at day 50. Untreated mice (orange line) were used as controls. Data were visualized using Kaplan-Meier analysis, p-value of 0.00016 was calculated using the log rank test.
Data are represented as mean±standard error (SE).
The treatment procedure started when the tumor reached a volume of 75 mm^3, and when possible, it was stopped at day 42. For mice reaching the day 42, the final experimental endpoint was set up at day 50 from the beginning of the treatment procedure.

GPC1 protein [4] = assay: Immunofluorescence of GPC1 protein in cell lines; assay type: cell-based, human; details: JURKAT cells
Procedure: (§1) Remarkably, the same expression pattern as flow cytometry analysis was obtained by immunofluorescence analysis with anti-GPC1 C. […] Thus, the results of immunofluorescence analysis confirmed the ability of anti-GPC1 C to detect the GPC1 protein that was observed when flow cytometry was performed (FIGS. 1A, 1B). • c) Anti-GPC1 C was also shown to specifically recognize GPC1 protein in GBM tissue samples from surgical resection.

GPC1 protein [5] = biological target: T1, GPC1 protein (Homo sapiens, UniProt P35052); assay: Immunofluorescence of GPC1 protein in cell lines; assay type: cell-based; design: endogenous in cells; host or cells: BXPC3, U87MG, T98G (GPC1-expressing); details: BXPC3, U87MG and T98G cell lines
T1 sequence (P35052 24-530): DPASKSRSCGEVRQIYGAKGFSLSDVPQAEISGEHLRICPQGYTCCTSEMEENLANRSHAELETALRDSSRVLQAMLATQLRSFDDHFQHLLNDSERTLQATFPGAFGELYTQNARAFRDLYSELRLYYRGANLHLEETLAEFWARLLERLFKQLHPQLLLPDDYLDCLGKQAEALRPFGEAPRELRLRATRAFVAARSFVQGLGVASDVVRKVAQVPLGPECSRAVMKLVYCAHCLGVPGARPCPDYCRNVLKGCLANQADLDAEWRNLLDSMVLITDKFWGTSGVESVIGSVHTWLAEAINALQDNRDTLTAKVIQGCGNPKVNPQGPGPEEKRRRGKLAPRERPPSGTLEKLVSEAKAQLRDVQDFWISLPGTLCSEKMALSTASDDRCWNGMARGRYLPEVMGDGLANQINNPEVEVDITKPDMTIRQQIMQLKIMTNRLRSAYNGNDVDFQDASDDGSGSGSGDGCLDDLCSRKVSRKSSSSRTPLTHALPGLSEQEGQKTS
Procedure: as §1

GPC1 protein [6] = assay: Flow cytometry analysis of GPC1 expression in cell lines; assay type: cell-based, human; details: JURKAT cell line (complete absence of GPC1 protein)
Procedure: as §1

GPC1 protein [7] = biological target: T2, GPC1 protein (Homo sapiens, UniProt P35052); assay: Immunofluorescence of GPC1 protein in BXPC3 xenograft tumor masses and mouse organs; design: species or system athymic nude mice; details: tumor masses of BXPC3 xenografts
T2 construct: in tumor masses of xenografts obtained by subcutaneous injection of BXPC3 into athymic nude mice; from tissue; host or cells: BXPC3 xenograft tumour masses from athymic nude mice; organs of the same mice as negative control
T2 sequence (P35052 24-530 limits assumed): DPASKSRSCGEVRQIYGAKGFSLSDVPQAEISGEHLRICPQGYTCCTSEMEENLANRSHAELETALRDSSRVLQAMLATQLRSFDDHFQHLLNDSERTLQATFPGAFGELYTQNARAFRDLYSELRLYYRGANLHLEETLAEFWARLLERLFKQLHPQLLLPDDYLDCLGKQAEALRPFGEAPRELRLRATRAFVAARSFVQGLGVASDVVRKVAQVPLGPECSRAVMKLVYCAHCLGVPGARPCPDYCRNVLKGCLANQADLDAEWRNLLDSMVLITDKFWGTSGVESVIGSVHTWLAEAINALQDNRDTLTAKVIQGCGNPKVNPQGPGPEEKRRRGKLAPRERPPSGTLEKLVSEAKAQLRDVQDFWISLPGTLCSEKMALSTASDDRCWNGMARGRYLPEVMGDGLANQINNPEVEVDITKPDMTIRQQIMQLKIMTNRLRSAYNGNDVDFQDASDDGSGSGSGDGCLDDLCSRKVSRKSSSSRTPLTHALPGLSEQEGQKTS
Procedure: (§2) Scale bar corresponds to 25 μm.
as §1

GPC1 protein [8] = assay: as above; design: species or system athymic nude mice; details: organs of the xenograft mice
Procedure: as §2, §1

GPC1 protein [9] = biological target: T1, GPC1 protein; assay: Immunofluorescence of GPC1 protein in GBM, liver and lung tissue; design: specifically recognize GPC1 protein in GBM tissue samples from surgical resection; from tissue; host or cells: glioblastoma (GBM) tissue from surgical resection; healthy liver and lung tissue
Procedure: Scale bar corresponds to 50 μm.
as §1

BXPC3 tumor mass [10] = assay: Complement-dependent cytotoxicity in BXPC3 tumor mass (hematoxylin-eosin, immunofluorescence); details: compared with murine IgM pool or PBS
Procedure: The nuclei are stained in purple, the cytoplasm is stained in pink.
Blue represents nuclei and green represents the signal related to the immunological cell biomarkers (CD14 and CD56, respectively).
Blue represents nuclei and green represents the signal related to the complement system effectors (C1q, C3, C9, respectively).
To better characterize the source of cell death, the presence of complement system effectors, but also the recruitment of macrophages, and NK cells was also analyzed by immunofluorescence analysis (FIGS. 7A, 7B).
In particular, the involvement of the complement system was investigated, by analyzing C1q, C3 (C3b, iC3b, C3c), and C9.

GPC1 protein [11] = biological target: T1, GPC1 protein; assay: Flow cytometry analysis of GPC1 expression in cell lines; assay type: cell-based; design: endogenous in cells; host or cells: BXPC3, U87MG, T98G (GPC1-expressing); JURKAT (no GPC1); details: GPC1-expressing BXPC3, U87MG and T98G cell lines
Procedure: as §1

[12] = i.v., Cy5.5 conjugate, in vivo imaging
[13] = 7 mice, i.p. 38 micrograms twice a week

COc1cccc2c1C(=O)c1c(O)c3c(c(O)c1C2=O)C[C@@](O)(C(=O)CO)C[C@@H]3O[C@H]1C[C@H](N)[C@H](O)[C@H](C)O1 [Doxo, doxorubicin]
Mean survival ± S.D. (BXPC3 tumor [1]; 2 mg/kg doxorubicin per week): 13.9 ± 1.59 days
HR (BXPC3 tumor [1]; reference treatment: Untreated): 0.19

B1: anti-GPC1 C: anti-GPC1 IgM monoclonal antibody of the invention, heavy chain variable region SEQ ID NO: 13, light chain variable region SEQ ID NO: 14 (antibody, listed as Mus musculus, V domains shown)
VH: QVQLQQSDAELVKPGASVKISCKASGYTFTDHAIHWVKQKPEQGLEWIGYISPGNGDIKYNEKFKGKATLTADKSSSTAYMQLNSLTSEDSAVYFCKRYAYWGQGTLVTVSA
VL: DVLMTQTPLSLPVSLGDQASISCRSSQSIVHSNGNTYLEWYLQKPGQSPKLLIYKVSNRFSGVPDRFSGSGSGTDFTLKISRVEAEDLGVYYCFQGSHVPWTFGGGTKLEIKP
modifications: IgM constant regions
ex vivo accumulation in the tumor mass compared to the IgM pool (BXPC3 tumor mass [2]; 96 hours after administration, IVIS Lumina): higher accumulation
ex vivo immunofluorescence detection in the BXPC3 tumor mass (BXPC3 tumor mass [2]; 96 hours after injection): still detected
time remaining in the tumor (BXPC3 tumor mass [2]; ex vivo immunofluorescence): at least 96 hours
peak of accumulation on the tumor mass (BXPC3 tumor mass [2]; i.v., Cy5.5 conjugate, BXPC3 xenograft, imaging every 24 h from 0 to 96 h): 72 h
signal in the kidneys and liver (BXPC3 tumor mass [2]; [12]): A clear signal
tumor mass signal at 96 hours (BXPC3 tumor mass [2]; [12]): maintained up to 96 hours
% survival at day 50 (BXPC3 tumor [3]; [13]): 57.1%
Mean day of euthanasia/sacrifice (BXPC3 tumor [3]; [13]): 42.7
Day of end point (BXPC3 tumor [3]; individual mouse, i.p. 38 micrograms twice a week until day 42, experimental endpoint day 50): 28 and 29 and 42 and 50 (4×)
complete remission of the tumor mass (BXPC3 tumor [3]; observed in one animal): complete remission
survival time intervals versus PBS-treated mice (BXPC3 tumor [3]; p=0.00016, log-rank test): significantly longer
toxicity (weight loss, diarrhea, vomiting, convulsions, dehydration, tachypnea, dyspnea, motionless) (BXPC3 tumor [3]; treated group): no evidence of toxicity
GPC1 protein signal by immunofluorescence (GPC1 protein [4]): no signal was observed
GPC1 protein signal by immunofluorescence (GPC1 protein [5]): a signal corresponding to the GPC1 protein was observed
GPC1 protein signal by flow cytometry (GPC1 protein [6]): no signals corresponding to the presence of the GPC1 protein
GPC1 protein recognition by immunofluorescence (GPC1 protein [7]): specifically recognize the GPC1 protein
GPC1 protein signal by immunofluorescence (GPC1 protein [8]): no signals were obtained
GPC1 protein signal by immunofluorescence (GPC1 protein [9]; GBM tissue samples from surgical resection): a specific signal was observed
GPC1 protein signal by immunofluorescence (GPC1 protein [9]; healthy tissues (liver and lung)): no signal corresponding to GPC1 protein was detected
tumor cell death by hematoxylin-eosin staining (BXPC3 tumor mass [10]; 96 hours): clear indicator of cell death
complement system deposition (C1q, C3, C9), macrophage and NK cell recruitment in tumors (BXPC3 tumor mass [10]; immunofluorescence): high degree of complement system deposition (C1q, C3, C9), macrophage and NK cell recruitment
GPC1 protein recognition by flow cytometry (GPC1 protein [11]): specifically recognize the GPC1 protein
